# Source: patent publication EP4793287A1, “TUMOR MICROENVIRONMENT SPECIFICALLY ACTIVATED CD47 ANTIBODY” (Affinity (Shanghai) Biopharmaceutical Co., Ltd., priority 2023, dated 2025)
# Molecular target: T1, CD47 on CHOK1-CD47 cells (UniProt Q08722 19-323)
# T1 construct: whole, on cells; The rabbits were immunized with human CD47, so human is likely
# Assay: flow cytometry on CHOK1-CD47 cells
# T1 sequence (Q08722 19-323 limits assumed): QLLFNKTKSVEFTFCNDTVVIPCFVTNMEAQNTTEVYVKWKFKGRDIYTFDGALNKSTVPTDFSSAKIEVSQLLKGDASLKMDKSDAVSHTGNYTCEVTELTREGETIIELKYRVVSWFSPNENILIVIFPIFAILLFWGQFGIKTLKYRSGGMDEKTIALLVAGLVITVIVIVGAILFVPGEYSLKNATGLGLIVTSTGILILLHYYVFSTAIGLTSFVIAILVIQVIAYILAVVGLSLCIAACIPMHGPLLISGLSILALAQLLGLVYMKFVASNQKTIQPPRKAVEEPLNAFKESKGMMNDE
row,Binder,EC50
1,"70G1 (antibody, V domains shown, Recombinant rabbit monoclonal antibody expressed in Expi293; it was detected with anti-human IgG Fc) VH: QSVKESEGGLFKPTDTLTLTCTVSGFSLSNYAINWVRQAPGNGLEWIGIINGYGMTYYASWAKSRSTITRNTSENTVTLKLTSLTAADTATYFCARDRYGSYVGYSSDIWGPGTLVTVSS VL: AYDMTQTPASVEAAVGGTVTIKCQASQNISSRLAWYQQKPGQPPKLLIYGTSTLASGVPSRFRGSGSGTQFSLTISDLECADAATYYCQHGYYYSSSFTTYNAFGGGTEVVVK",2.88 nM
2,"71D6 (antibody, V domains shown, Recombinant rabbit monoclonal antibody expressed in Expi293; it was detected with anti-human IgG Fc) VH: QSLEESGGDLVKPGASLTLTCTASGFSFSTSYWIYWVRQAPGKGLELIACIATGSDGSTYYASWASGRFTISKTSSTTVTLQMTSLTAADTATYFCAREAGNGVYNLWGQGTLVTVSS VL: AYDMTQTPASVEVAVGGTVTIKCQASESIRNALAWYQQKPGQPPKLLISGASKLASGVASRFKGSGSATEFTLTISDLECADAATYYCQQYYSSSNVDNGFGGGTEVVVK",3.8 nM
3,"69F12 (antibody, V domains shown, Recombinant rabbit monoclonal antibody expressed in Expi293; it was detected with anti-human IgG Fc) VH: QSVEESEGGLFKPTDTLTLTCTISGFSLSNYDMIWVRQAPGNGLEYIGIISSRDKAGHAAWAKRRSTITRNPKENTVTLKMTSLTVADTATYFCARRFSSMHGLDIWGPGTLVTVSS VL: AYDMTQTPSSVSAAVGGTVTIKCQASQSISNYLSWYQQKPGQPPKLLIYLASTLASGVPSRFKGSGSGTQFTLTISGVQCADAATYYCQQGYSSDSVDNVFGGGTEVVVK",0.8 nM

# Molecular target: T1, CD47 on CHOK1-CD47 cells
# Assay: flow cytometry on CHOK1-CD47 cells
# Remark: another data set of the same source
row,Binder,EC50
1,"70H1-VH2VL2 (antibody, V domains shown, Humanized 70H1) VH: QQQLVESGGGVVQPGGSLRLSCAASGFTFSSGYDMCWVRQAPGKGLEWIACIYTRSSGGTYYASWAKGRFTISKDNSKNTLYLQMNSLRAEDTAVYYCAKGRSSYRLNLWGQGTLVTVSS VL: DIQMTQSPSTLSASVGDRVTIKCQASQSISNELSWYQQKPGKAPKLLIYRASTLESGVSSRFSGSGSGTEFTLTISSLQPDDFATYYCQSTFYGDYGNAFGGGTKVEIK",1.17 nM
2,"70H1-VH3VL2 (antibody, V domains shown, Humanized 70H1) VH: QQQLVESGGGVVQPGGSLRLSCAASGFSFSSGYDMCWVRQAPGKGLEWIACIYTRSSGGTYYASWAKGRFTISKDNSKNTLYLQMNSLRAEDTAVYFCAKGRSSYRLNLWGQGTLVTVSS VL: DIQMTQSPSTLSASVGDRVTIKCQASQSISNELSWYQQKPGKAPKLLIYRASTLESGVSSRFSGSGSGTEFTLTISSLQPDDFATYYCQSTFYGDYGNAFGGGTKVEIK",0.64 nM
3,"70H1-VH2VL1 (antibody, V domains shown, Humanized 70H1) VH: QQQLVESGGGVVQPGGSLRLSCAASGFTFSSGYDMCWVRQAPGKGLEWIACIYTRSSGGTYYASWAKGRFTISKDNSKNTLYLQMNSLRAEDTAVYYCAKGRSSYRLNLWGQGTLVTVSS VL: DIQMTQSPSTLSASVGDRVTITCQASQSISNELSWYQQKPGKAPKLLIYRASTLESGVPSRFSGSGSGTEFTLTISSLQPDDFATYYCQSTFYGDYGNAFGGGTKVEIK",1.09 nM
4,"70H1-VH3VL3 (antibody, V domains shown, Humanized 70H1) VH: QQQLVESGGGVVQPGGSLRLSCAASGFSFSSGYDMCWVRQAPGKGLEWIACIYTRSSGGTYYASWAKGRFTISKDNSKNTLYLQMNSLRAEDTAVYFCAKGRSSYRLNLWGQGTLVTVSS VL: DIQMTQSPSTLSASVGDRVTIKCQASQSISNELSWYQQKPGKPPKLLIYRASTLESGVSSRFSGSGSGTEFTLTISSLQPDDFATYYCQSTFYGDYGNAFGGGTKVEIK",1.01 nM
5,"70H1-VH3VL1 (antibody, V domains shown, Humanized 70H1, the final preferred antibody) VH: QQQLVESGGGVVQPGGSLRLSCAASGFSFSSGYDMCWVRQAPGKGLEWIACIYTRSSGGTYYASWAKGRFTISKDNSKNTLYLQMNSLRAEDTAVYFCAKGRSSYRLNLWGQGTLVTVSS VL: DIQMTQSPSTLSASVGDRVTITCQASQSISNELSWYQQKPGKAPKLLIYRASTLESGVPSRFSGSGSGTEFTLTISSLQPDDFATYYCQSTFYGDYGNAFGGGTKVEIK",0.23 nM
6,"70H1-VH1VL1 (antibody, V domains shown, Humanized 70H1) VH: QVQLVESGGGVVQPGGSLRLSCAASGFTFSSGYDMCWVRQAPGKGLEWVSCIYTRSSGGTYYASWAKGRFTISRDNSKNTLYLQMNSLRAEDTAVYYCAKGRSSYRLNLWGQGTLVTVSS VL: DIQMTQSPSTLSASVGDRVTITCQASQSISNELSWYQQKPGKAPKLLIYRASTLESGVPSRFSGSGSGTEFTLTISSLQPDDFATYYCQSTFYGDYGNAFGGGTKVEIK",1.04 nM
7,"70H1-VH2VL3 (antibody, V domains shown, Humanized 70H1) VH: QQQLVESGGGVVQPGGSLRLSCAASGFTFSSGYDMCWVRQAPGKGLEWIACIYTRSSGGTYYASWAKGRFTISKDNSKNTLYLQMNSLRAEDTAVYYCAKGRSSYRLNLWGQGTLVTVSS VL: DIQMTQSPSTLSASVGDRVTIKCQASQSISNELSWYQQKPGKPPKLLIYRASTLESGVSSRFSGSGSGTEFTLTISSLQPDDFATYYCQSTFYGDYGNAFGGGTKVEIK",1.05 nM
8,"70H1-VH1VL3 (antibody, V domains shown, Humanized 70H1) VH: QVQLVESGGGVVQPGGSLRLSCAASGFTFSSGYDMCWVRQAPGKGLEWVSCIYTRSSGGTYYASWAKGRFTISRDNSKNTLYLQMNSLRAEDTAVYYCAKGRSSYRLNLWGQGTLVTVSS VL: DIQMTQSPSTLSASVGDRVTIKCQASQSISNELSWYQQKPGKPPKLLIYRASTLESGVSSRFSGSGSGTEFTLTISSLQPDDFATYYCQSTFYGDYGNAFGGGTKVEIK",1.76 nM

# Molecular target: antibody antigen (CD47) coated in the ELISA of Example 3 (UniProt Q08722)
# Sequence (Q08722 19-139 limits assumed): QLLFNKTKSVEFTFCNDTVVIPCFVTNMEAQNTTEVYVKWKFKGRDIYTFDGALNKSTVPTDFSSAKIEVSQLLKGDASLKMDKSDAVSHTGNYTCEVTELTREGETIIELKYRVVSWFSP
# Assay: ELISA on coated antigen, ratio against wild-type 70H1
row,Binder,Mutant Binding Strength (EC50 post-mutation / EC50 wild-type)
1,"70H1 mutant VH-33 Y to C (antibody, V domains shown) VH: QQQLEESGGGLVKPEGSLTLTCTASGFSFSSGCDMCWVRQAPGRGLEWIACIYTRSSGGTYYASWAKGRFTISKTSSTVDLRMTSLTAADTATYFCAGGRSSYRLNLWGQGALVTVSS VL: DVVMTQTPSPVEAAVGGTVTIKCQASQSISNELSWYQQKPGQPPKLLIYRASTLESGVSSRFKGSGSGTEFTLTISDLECADAATYYCQSTFYGDYGNAFGGGTEVVVK",1
2,"70H1 mutant VL-96 Y to C (antibody, V domains shown) VH: QQQLEESGGGLVKPEGSLTLTCTASGFSFSSGYDMCWVRQAPGRGLEWIACIYTRSSGGTYYASWAKGRFTISKTSSTVDLRMTSLTAADTATYFCAGGRSSYRLNLWGQGALVTVSS VL: DVVMTQTPSPVEAAVGGTVTIKCQASQSISNELSWYQQKPGQPPKLLIYRASTLESGVSSRFKGSGSGTEFTLTISDLECADAATYYCQSTFYGDCGNAFGGGTEVVVK",1
3,"70H1 mutant VL-53 T to C (antibody, V domains shown) VH: QQQLEESGGGLVKPEGSLTLTCTASGFSFSSGYDMCWVRQAPGRGLEWIACIYTRSSGGTYYASWAKGRFTISKTSSTVDLRMTSLTAADTATYFCAGGRSSYRLNLWGQGALVTVSS VL: DVVMTQTPSPVEAAVGGTVTIKCQASQSISNELSWYQQKPGQPPKLLIYRASCLESGVSSRFKGSGSGTEFTLTISDLECADAATYYCQSTFYGDYGNAFGGGTEVVVK",1
4,"70H1 mutant VH-65 W to C (antibody, V domains shown) VH: QQQLEESGGGLVKPEGSLTLTCTASGFSFSSGYDMCWVRQAPGRGLEWIACIYTRSSGGTYYASCAKGRFTISKTSSTVDLRMTSLTAADTATYFCAGGRSSYRLNLWGQGALVTVSS VL: DVVMTQTPSPVEAAVGGTVTIKCQASQSISNELSWYQQKPGQPPKLLIYRASTLESGVSSRFKGSGSGTEFTLTISDLECADAATYYCQSTFYGDYGNAFGGGTEVVVK",0.8
5,"70H1 mutant VL-93 Y to C (antibody, V domains shown) VH: QQQLEESGGGLVKPEGSLTLTCTASGFSFSSGYDMCWVRQAPGRGLEWIACIYTRSSGGTYYASWAKGRFTISKTSSTVDLRMTSLTAADTATYFCAGGRSSYRLNLWGQGALVTVSS VL: DVVMTQTPSPVEAAVGGTVTIKCQASQSISNELSWYQQKPGQPPKLLIYRASTLESGVSSRFKGSGSGTEFTLTISDLECADAATYYCQSTFCGDYGNAFGGGTEVVVK",1
6,"70H1 mutant VL-92 F to C (antibody, V domains shown) VH: QQQLEESGGGLVKPEGSLTLTCTASGFSFSSGYDMCWVRQAPGRGLEWIACIYTRSSGGTYYASWAKGRFTISKTSSTVDLRMTSLTAADTATYFCAGGRSSYRLNLWGQGALVTVSS VL: DVVMTQTPSPVEAAVGGTVTIKCQASQSISNELSWYQQKPGQPPKLLIYRASTLESGVSSRFKGSGSGTEFTLTISDLECADAATYYCQSTCYGDYGNAFGGGTEVVVK",1.3
7,"70H1 mutant VH-55 R to C (antibody, V domains shown) VH: QQQLEESGGGLVKPEGSLTLTCTASGFSFSSGYDMCWVRQAPGRGLEWIACIYTCSSGGTYYASWAKGRFTISKTSSTVDLRMTSLTAADTATYFCAGGRSSYRLNLWGQGALVTVSS VL: DVVMTQTPSPVEAAVGGTVTIKCQASQSISNELSWYQQKPGQPPKLLIYRASTLESGVSSRFKGSGSGTEFTLTISDLECADAATYYCQSTFYGDYGNAFGGGTEVVVK",1
8,"70H1 mutant VL-98 N to C (antibody, V domains shown) VH: QQQLEESGGGLVKPEGSLTLTCTASGFSFSSGYDMCWVRQAPGRGLEWIACIYTRSSGGTYYASWAKGRFTISKTSSTVDLRMTSLTAADTATYFCAGGRSSYRLNLWGQGALVTVSS VL: DVVMTQTPSPVEAAVGGTVTIKCQASQSISNELSWYQQKPGQPPKLLIYRASTLESGVSSRFKGSGSGTEFTLTISDLECADAATYYCQSTFYGDYGCAFGGGTEVVVK",1
9,"70H1 mutant VL-27 Q to C (antibody, V domains shown) VH: QQQLEESGGGLVKPEGSLTLTCTASGFSFSSGYDMCWVRQAPGRGLEWIACIYTRSSGGTYYASWAKGRFTISKTSSTVDLRMTSLTAADTATYFCAGGRSSYRLNLWGQGALVTVSS VL: DVVMTQTPSPVEAAVGGTVTIKCQASCSISNELSWYQQKPGQPPKLLIYRASTLESGVSSRFKGSGSGTEFTLTISDLECADAATYYCQSTFYGDYGNAFGGGTEVVVK",1
10,"70H1 mutant VL-49 Y to C (antibody, V domains shown) VH: QQQLEESGGGLVKPEGSLTLTCTASGFSFSSGYDMCWVRQAPGRGLEWIACIYTRSSGGTYYASWAKGRFTISKTSSTVDLRMTSLTAADTATYFCAGGRSSYRLNLWGQGALVTVSS VL: DVVMTQTPSPVEAAVGGTVTIKCQASQSISNELSWYQQKPGQPPKLLICRASTLESGVSSRFKGSGSGTEFTLTISDLECADAATYYCQSTFYGDYGNAFGGGTEVVVK",0.9
